Source: paper PMC2063550

Legend:
[1] = molecular target: GST-PERK, wild-type PERK kinase domain fused to GST (active, autophosphorylated) (mouse) (UniProt Q9Z2B5)
[2] = molecular target: GST-PERK, wild-type PERK kinase domain fused to GST (active, autophosphorylated) (mouse) (UniProt Q9Z2B5); assay: pull-down

Sequence of UniProt Q9Z2B5 (Q9Z2B5 537-1114): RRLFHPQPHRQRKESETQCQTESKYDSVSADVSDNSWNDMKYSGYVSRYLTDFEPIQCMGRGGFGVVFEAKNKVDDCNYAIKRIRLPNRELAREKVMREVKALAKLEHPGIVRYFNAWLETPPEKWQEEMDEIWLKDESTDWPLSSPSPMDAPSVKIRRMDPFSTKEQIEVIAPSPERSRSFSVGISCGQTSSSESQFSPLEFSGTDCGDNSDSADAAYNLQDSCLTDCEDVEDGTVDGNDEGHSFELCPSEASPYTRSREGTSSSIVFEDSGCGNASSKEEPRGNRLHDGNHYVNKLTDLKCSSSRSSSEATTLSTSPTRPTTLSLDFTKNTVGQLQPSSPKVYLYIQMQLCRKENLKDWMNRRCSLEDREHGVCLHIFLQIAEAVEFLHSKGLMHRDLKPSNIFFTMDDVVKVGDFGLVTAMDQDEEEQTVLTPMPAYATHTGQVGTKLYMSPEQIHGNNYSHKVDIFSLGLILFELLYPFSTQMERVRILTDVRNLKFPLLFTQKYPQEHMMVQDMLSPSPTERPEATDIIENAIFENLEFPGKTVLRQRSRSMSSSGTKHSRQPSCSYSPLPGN

| Substance | stoichiometry N (eIF2α-NTD per PERK) [1] | KCl concentration at the peak of elution [2] |
| --- | --- | --- |
| eIF2α-NTD (NH2-terminal domain of eIF2α, residues 1-185, three solubilizing mutations, nonphosphorylated) (domain or fragment) | > 1 | 225 mM KCl |
| phosphorylated eIF2α-NTD (P–eIF2α-NTD, phosphorylated by PERK on serine 51) (domain or fragment) | – | 125 mM KCl |
